# Assay results as given in the RNAGym collection of RNA variant scans (doi:10.1101/gr.219683.116).
# B1: mRNA-splicing (parent)
# chain: AGUUGCUGCUGGGAGCUCCAGCACAGUGAAAUGGACAGAAGGGCAGAGCAA
# Variants of: B1
# Assay: exon inclusion enrichment index; higher = more inclusion; WT1 exon 5 minigene, HEK293
row,Variant,exon inclusion enrichment index
1,C6G U7C G8A U10A,0.0835
2,C6G U7C G8A U10C,2.05
3,C6A U7C C9A U10C G21A,3.08
4,C6A U7C C9A U10C G21U,3.09
5,C6A U7C C9A U10C G21C,3.66
6,C6A U7C C9A U10C G42A G43C,4.49
7,C6A U7C C9A U10C G42A G43A,4.69
8,C6A U7C C9A U10C G42A G43U,4.39
9,C6A U7C C9A U10C G26A U27A,2.91
10,C6A U7C C9A U10C G26A U27G,3.54
11,C6A U7C C9A U10C G26A U27C,4.65
12,C6U U7C C9A U10A,0.879
13,C6U U7C C9A U10C,3.37
14,C6U G8U C9U,0.0925
15,C6U U7C G8A U10A,0.155
16,C6U U7C G8A U10C,2.38
17,C6A U7C C9A U10C U17G C18A,3.29
18,C6A U7C C9A U10C U17G C18G,2.57
19,C6A U7C C9A U10C U17G C18U,1.64
20,C6G U7A G8U C9A,0.349
21,C6A U7C C9A U10C U17C C18U,3.39

row,Variant,exon inclusion enrichment index
1,C6A U7C C9A U10C U17C C18G,3.74
2,C6A U7C C9A U10C U17C C18A,3.17
3,C6A U7C C9A U10C G28U,1.34
4,C6A U7C C9A U10C G28A,1.59
5,C6A U7C C9A U10C G28C,3.06
6,C6G G8U C9U,0.101
7,C6U U7G,0.0137
8,C6U U7C,0.178
9,C6U U7A,0.0485
10,C6A U7C G8C C9A U10A,0.587
11,C6A U7C G8C C9A U10C,2.29
12,C6A U7G G8A C9A U10A,0.0362
13,C6A U7G G8A C9A U10C,0.734
14,C6U U7A G8U C9A,0.17
15,C6A U7C C9A U10C C44U,1.32
16,C6A U7C C9A U10C C44A,4.44
17,C6A U7C C9A U10C C44G,4.07
18,C6U C9A U10A,0.198
19,C6U C9A U10C,1.46
20,C6A U7C C9A U10C G26A,3.92
21,C6A U7C C9A U10C G26U,3.34

row,Variant,exon inclusion enrichment index
1,C6A U7C C9A U10C G26C,3.46
2,C6A U7C C9A U10C G34U,1.52
3,C6A U7C C9A U10C G34A,2.27
4,C6A U7C C9A U10C G34C,1.79
5,C6G G8C C9U U10C,0.97
6,C6A U7C C9A U10G,0.756
7,C6A U7C C9A U10C C22G A23C,1.74
8,C6A U7C C9A U10C C22G A23G,2.55
9,C6A U7C C9A U10C C22G A23U,0.87
10,C6A U7C C9A U10C G42C,4.02
11,C6A U7C C9A U10C G42U,3.3
12,C6A U7C C9A U10C G42A,4.25
13,C6A U7C C9A U10C G11U G12C,1.94
14,C6A U7C C9A U10C G11U G12U,1.57
15,C6A U7C C9A U10C G11U G12A,1.25
16,C6A U7C C9A U10C U17A C18U,2.9
17,C6A U7C C9A U10C U17A C18A,3.1
18,C6A U7C C9A U10C U17A C18G,2.68
19,C6A U7C C9A U10C C24A A25C,4.45
20,C6A U7C C9A U10C C24A A25U,2.96
21,C6A U7C C9A U10C C24A A25G,2.94

row,Variant,exon inclusion enrichment index
1,C6A U7C C9A U10C G34A A35U,1.68
2,C6A U7C C9A U10C G34A A35G,2.05
3,C6A U7C C9A U10C G34A A35C,2.52
4,C6A U7C C9A U10C U32G G33U,1.91
5,C6A U7C C9A U10C U32G G33C,3.23
6,C6A U7C C9A U10C U32G G33A,1.61
7,C6A U7C C9A U10C G28C A29U,2.34
8,C6A U7C C9A U10C G28C A29G,3.91
9,C6A U7C C9A U10C G28C A29C,2.62
10,C6A U7C C9A U10C C24A,2.94
11,C6A U7C C9A U10C C24G,3.61
12,C6A U7C C9A U10C C24U,1.66
13,C6A U7G G8U C9A U10A,0.0118
14,C6A U7G G8U C9A U10C,0.407
15,C6A U7C C9A U10C U17C,3.11
16,C6A U7C C9A U10C U17G,2.68
17,C6A U7C C9A U10C U17A,3.36
18,C6A U7C C9A U10C G38C A39U,0.489
19,C6A U7C C9A U10C G38C A39C,3
20,C6A U7C C9A U10C G38C A39G,2.65
